Literature values, collected in publication PMC3742580.

Molecular target: Ras (Homo sapiens) (UniProt P01112)

RalGDS RA, sequence (Q12967 798-885): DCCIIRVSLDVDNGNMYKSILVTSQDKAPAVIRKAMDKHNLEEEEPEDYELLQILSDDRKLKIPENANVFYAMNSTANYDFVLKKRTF

- Kd: 1.9 µM
Substance: RalGDS RA (from UniProt Q12967)
